Assay: soluble on expression in E. coli; label from the status in PepcDB or PDB records

Sequence	soluble on expression in E. coli
MRGEVKKIIEAIGDIFIGHEDVIRKVLAVALVNGNILFEDYPGLGKTLLAKAFAKILGLKFKRIQFTPDLLPADIIGTKVWKPEKGAFEVVKGPIFTNILLADEINRAPPKTQSALLEAMEERQVTIEGETFKLERPFFIIATQNPLELEGTYPLPEAQLDRFLVRLNIGYPRNEEDELEILKARLRWGKDDPTSDISPIISREDFIRMQEEVERGVIIHDDILRYIVRLVRRIREDERIEAGPSPRGGLALMKLAKANAFIEGRSYVIPDDVKYFAVEALAHRIVLKPEYSLERGIAEEIIREVLEEVPVPKDIRY	soluble
MRGNLKLFELKSGRGEKLMKNILIISSSPRKKGNSQILCEQFKKGAEAKGHQVKIVRIMEQNIGFCRACDGCMRNGGTCVLKDDMAEILKMFQKADVLVLATPVYFYGISAQMKTFIDRTYPIWQHLGKKEVYYIISAGLGEDIIERSLGDLNGFVEHLEEYKISGKIYAANVMDAGLVKNQSVFQKAYDMGYAI	not soluble
MRGSHHHHHHGMASMTGGQQMGRDLYDDDDKDPMSVIKPDMKIKLRMEGAVNGHPFAIEGVGLGKPFEGKQSMDLKVKEGGPLPFAYDILTTVFCYGNRVFAKYPENIVDYFKQSFPEGYSWERSMNYEDGGICIATNDITLDGDCFIYEIRFDGVNFPANGPVMQKRTVKWEPSTEKLYVRDGVLKGDVNMALLLEGGGHYRCDFKTTYKAKKVVQLPDYHFVDHRIEIKSHDKDYNNVNLHEHAEAHSGLPRQAK	soluble
MRGSHHHHHHGSASFLKKTMPFKTTIEGTVNGHYFKCTGKGEGNPFEGTQEMKIEVIEGGPLPFAFHILSTSCMYGSKTFIKYVSGIPDYFKQSFPEGFTWERTTTYEDGGFLTAHQDTSLDGDCLVYKVKILGNNFPADGPVMQNKAGRWEPGTEIVYEVDGVLRGQSLMALKCPGGRHLTCHLHTTYRSKKPASALKMPGFHFEDHRIEIMEEVEKGKCYKQYEAAVGRYCDAAPSKLGHN	soluble
MRGSHHHHHHGSDLGRKLLEAARAGQDDEVRILMANGADVNAADNTGTTPLHLAAYSGHLEIVEVLLKHGADVDASDVFGYTPLHLAAYWGHLEIVEVLLKNGADVNAMDSDGMTPLHLAAKWGYLEIVEVLLKHGADVNAQDKFGKTAFDISIDNGNEDLAEILQKLN	soluble
MRGSHHHHHHGSNSLSEANTKFMFDLFQQFRKSKENNIFYSPISITSALGMVLLGAKDNTAQQIKKVLHFDQVTENTTGKAATYHVDRSGNVHHQFQKLLTEFNKSTDAYELKIANKLFGEKTYLFLQEYLDAIKKFYQTSVESVDFANAPEESRKKINSWVESQTNEKIKNLIPEGNIGSNTTLVLVNAIYFKGQWEKKFNKEDTKEEKFWPNKNTYKSIQMMRQYTSFHFASLEDVQAKVLEIPYKGKDLSMIVLLPNEIDGLQKLEEKLTAEKLMEWTSLQNMRETRVDLHLPRFKVEESYDLKDTLRTMGMVDIFNGDADLSGMTGSRGLVLSGVLHKAFVEVTEEGAEAAAATAVVGFGSSPTSTNEEFHCNHPFLFFIRQNKTNSILFYGRFSSP	soluble
MRGSHHHHHHGSPYNVMIVDDAAMMRLYIASFIKTLPDFKVVAQAANGQEALDKLAAQPNVDLILLDIEMPVMDGMEFLRHAKLKTRAKICMLSSVAVSGSPHAARARELGADGVVAKPSGTVSHDLEEKTGGELARTMRTLMAA	soluble
MRGSHHHHHHTDPALRADIIFYHPTFDTQWWIEALRKAIPQARVRAWKSGDNDSADYALVWHPPVEMLAGRDLKAVFALGAGVDSILSKLQAHPEMLNPSVPLFRLEDTGMGEQMQEYAVSQVLHWFRRFDDYRIQQNSSHWQPLPEYHREDFTIGILGAGVLGSKVAQSLQTWRFPLRCWSRTRKSWPGVQSFAGREELSAFLSQCRVLINLLPNTPETVGIINQQLLEKLPDGAYLLNLARGVHVVEDDLLAALDSGKVKGAMLDVFNREPLPPESPLWQHPRVTITPHVAAITRPAEAVEYISRTIAQLEKGERVCGQVDRARGYGLCGR	soluble
MRGSHHHHHHTDPALRASVRLVLAKGREKSLLRRHPWVFSGAVARMEGKASLGETIDIVDHQGKWLARGAYSPASQIRARVWTFDPSESIDIAFFSRRLQQAQKWRDWLAQKDGLDSYRLIAGESDGLPGITIDRFGNFLVLQLLSAGAEYQRAALISALQTLYPECSIYDRSDVAVRKKEGMELTQGPVTGELPPALLPIEEHGMKLLVDIQHGHKTGYYLDQRDSRLATRRYVENKRVLNCFSYTGGFAVSALMGGCSQVVSVDTSQEALDIARQNVELNKLDLSKAEFVRDDVFKLLRTYRDRGEKFDVIVMDPPKFVENKSQLMGACRGYKDINMLAIQLLNEGGILLTFSCSGLMTSDLFQKIIADAAIDAGRDVQFIEQFRQAADHPVIATYPEGLYLKGFACRVMGLCGR	soluble
MRGYLGKAQQNALINEAQSYPLTRPQIQVFGRYHAIPRQQVWYGDLGCDYLYSGLFIRALPWPKYLQKLRDKLQRDFELGSNGVLVNRYADGQDCMGAHSDDEPEIAHGSDIASISLGATRDFVIKHKHSKQKCCISLHSGDLLIMHWPMQRDWLHSVPKRLKVTEPRWNYTFRQLVVNYHGLEHHHHHH	not soluble
MRIEVKLLPLKDNPILPFNYNYEVYSQILEKVNSIEPTIAKLLSSPHGFWTFSRIIVRKRKILPDKGIEILSDDVSLYISSSNEDIIRAIAEAVEKSPEFKIGELSFLVGDIKAIKVKELGKENVFSTLSPIVVRTVKFEGNKLRHWDLYPHDELFMDRLRKVMILRYSEVMGETPKDRDFTIEVLKFKPTRLMVGSSYIRGSLMVFRYAGSEEIARFGYENGFGEKTGLGFGMVKLIE	soluble
MRILFVAAGSPATVFALAPLATAARNAGHQVVMAANQDMGPVVTGVGLPAVATTDLPIRHFITTDREGRPEAIPSDPVAQARFTGRWFARMAASSLPRMLDFSRAWRPDLIVGGTMSYVAPLLALHLGVPHARQTWDAVDADGIHPGADAELRPELSELGLERLPAPDLFIDICPPSLRPANAAPARMMRHVATSRQCPLEPWMYTRDTRQRVLVTSGSRVAKESYDRNFDFLRGLAKDLVRWDVELIVAAPDTVAEALRAEVPQARVGWTPLDVVAPTCDLLVHHAGGVSTLTGLSAGVPQLLIPKGSVLEAPARRVADYGAAIALLPGEDSTEAIADSCQELQAKDTYARRAQDLSREISGMPLPATVVTALEQLAHHHHHH	soluble
MRILGLDLGTKTLGVALSDEMGWTAQGIETIKINEAEGDYGLSRLSELIKDYTIDKIVLGFPKNMNGTVGPRGEASQTFAKVLETTYNVPVVLWDERLTTMAAEKMLIAADVSRQKRKKVIDKMAAVMILQGYLDSLNLEHHHHHH	not soluble
MRILIPFKANNPKSRLSSILSEEERKELARLMLLDVIDAAKPFGEIKVVCPSELDVEGVEVVVDTSDLNTTVNKVMDEAPLAVIMSDLPLLSEEVLKRFFETEGDVVVAPGRKGGTNMLLVRKRGFRVSYHFGSFFKHLEMARKMGMKAKIFDSFYSSVDIDDESDLLELMMHGSGKKSYEFLRKIGFSVSFEETPRLERRVFMQP	soluble
MRINFEKANSNHINIIFSWLKEPFIQEFWDNTQAHKDDILNFINGRTEPSSYADGKYVYWIASGNGHPFAMLMTIQETSEDEIDDIKLINLSKTGHSYGIDYMIGDKNYFGIGYGARTLIEFIDFFIKEVDPKADTFLIDPASDNPRAKHVYIKAGFEYVADFLMSGDVSGAGKLHHLLIKRIGLIK	not soluble
MRIPRIYHPISLENQTQCYLSEDAANHVARVLRMTEGEQLELFDGSNHIYPAKIIESNKKSVKVEILGRELADKESHLKIHLGQVISRGERMEFTIQKSVELGVNVITPLWSERCGVKLDAERMDKKIQQWQKIAIAACEQCGRNIVPEIRPLMKLQDWCAENDGALKLNLHPRAHYSIKTLPTIPAGGVRLLIGSEGGLSAQEIAQTEQQGFTEILLGKRVLRTETASLAAISALQICFGDLGEAAAAAALEHHHHHH	soluble
MRIRIRVLSHFSSALGFDESSFSIGEGITFAELRSKLIEQFSAFVRPIEIGMYVNMKPVPDDYTMMDGDIVYVFPRSSTP	not soluble
MRITIYTRNDCVQCHATKRAMENRGFDFEMINVDRVPEAAEALRAQGFRQLPVVIAGDLSWSGFRPDMINRLHPAPHAASA	soluble
MRITQEQAEAIFCEDLKQFGKTVEQSVKVCLTDAQIAALVSFCYNVETQAFCKSTLLKKLNNGAYESVPAELQKWNKVGGKAIQGFVNRRAAEAGLWAKGSYVCFNTQRVETKNTIGLLKIETLAPMIGSCSGLGGLLVGNGPLPALWF	not soluble
MRIVAVTDIHGNMASTVALANILKKIEAELLLIAGDITHFSGGEIAKQILEPLLKLGVRVLAVMGNCDGKDVPKVLDELGINVHNARVEVKKVGVVGFGGSSVTPFSTIWEFSEEEIYSSLKRNYRSGDIVLTHAPPYRTRIDKTFSGIHAGSKGLRKFIEEEQPPICICGHIHEARGIDKIGETLVVNPGPLSRRYYAVIDSETWEVKLERLLEHHHHHH	soluble
MRIVTAAVMASTLAVSSLSHAAEVGSGDNWHPGEELTQRSTQSHMFDGISLTEHQRQQMRDLMQQARHEQPPVNVSELETMHRLVTAENFDENAVRAQAEKMANEQIARQVEMAKVRNQMYRLLTPEQQAVLNEKHQQRMEQLRDVTQWQKSSSLKLLSSSNSRSQMAGDPLEHHHHHH	not soluble
MRKELVFVLLALFLCAGCNGNKKKMNGEHDLDAANITLDDHTISFYYNWYGNPSVDGEMKHWMHPIALAPGHSGDVGAISGLNDDIACNFYPELGTYSSNDPEIIRKHIRMHIKANVGVLSVTWWGESDYGNQSVSLLLDEAAKVGAKVCFHIEPFNGRSPQTVRENIQYIVDTYGDHPAFYRTHGKPLFFIYDSYLIKPAEWAKLFAAGGEISVRNTKYDGLFIGLTLKESELPDIETACMDGFYTYFAATGFTNASTPANWKSMQQWAKAHNKLFIPSVGPGYIDTRIRPWNGSTTRDRENGKYYDDMYKAAIESGASYISITSFNEWHEGTQIEPAVSKKCDAFEYLDYKPLADDYYLIRTAYWVDEFRKARSASEDVQLEHHHHHH	soluble
MRKIGLLFITIFCLLACKNNSSRISLEGEIKGLTNDTLYLYGTDALYDRIDTIYAEKGKFSYNLNIDSTVIDTLTTAVLLINGHVEYPVFLDKGNQITIKGNIDDLSYLDINGNEPNTSLSLFMKEQRGLGSASDKMMQEKAETFIRQHNSSLASVYLLDKYFVQTPQPDYIKIKEITEAMTGALLDRPYIENISDYIDQLEKVTVGKSAPYFSLPNEKGEKLSRSAERFRNRYLLLNFWASWCDPQPEANAELKRLNKEYKKNKNFAMLGISLDIDREAWETAIKKDTLSWDQVCDFTGLSSETAKQYAILTLPTNILLSPTGKILARDIQGEALTGKLKELLKTEEKKTGKSIR	not soluble
MRKIIVGAFVSLDGIMQAPGGPHEDPVGGFDHGGWAAPYFDETMGQAVDEMFSKPFDLLLGRKTYDIFAAHWPYAGPDDPIGPLFDRITKYVATRNPDLRLDWQNSRTLGSDPVAMLKKLKSEEGPDLLTQGSTDFLQTLFSNDLVDEMYISYFPVVLGKGKRLFGHGAMPMAMKLLGSKVSGTGVTANKYVRSGPVVTGSFEFEQPTEAELERRRKLS	soluble
MRKIQVGVTGMTCAACSNSVEAALMNVNGVFKASVALLQNRADVVFDPNLVKEEDIKEEIEDAGFEAEILAEEW	soluble

— the DeepSol protein solubility set
